Experiments:
[1] = biological target: T1, peptidyl-prolyl isomerase H (PPIH), full length, wild type (human, UniProt O43447 1-177); experiment: SPR
[2] = biological target: T2, PPIH W133A mutant (human, UniProt O43447 1-177, W133A); experiment: SPR
T2 sequence: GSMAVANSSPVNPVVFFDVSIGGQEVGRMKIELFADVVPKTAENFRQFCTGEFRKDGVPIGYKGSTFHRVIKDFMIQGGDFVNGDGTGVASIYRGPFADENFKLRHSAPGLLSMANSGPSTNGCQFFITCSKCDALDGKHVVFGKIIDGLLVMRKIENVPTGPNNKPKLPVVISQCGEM

[3] = biological target: T1, peptidyl-prolyl isomerase H (PPIH), …; experiment: AUC

B1: pre-mRNA processing factor 4 (PRPF4), residues 1-98 (domain or fragment, human, UniProt O43172 1-98, looked up)
chain: MASSRASSTQATKTKAPDDLVAPVVKKPHIYYGSLEEKERERLAKGESGILGKDGLKAGIEAGNINITSGEVFEIEEHISERQAEVLAEFERRKRARQ
For B1, the Kd [1] was 10.8 ± 1.37 µM and the binding result [2] was “binds”.

B2: pre-mRNA processing factor 4 (PRPF4), residues 106-169 (domain or fragment, human, UniProt O43172 106-169, looked up)
chain: SEVKACLRALGEPITLFGEGPAERRERLRNILSVVGTDALKKTKKDDEKSKKSKEEYQQTWYHE
In the case of B2, the “stoichiometry N” value [3] is reported as 2 and the binding result [2] is reported as “binds”.

B3: PRPF4 residues 106-169 with F122A (domain or fragment, human, UniProt O43172 106-169, looked up)
chain: SEVKACLRALGEPITLAGEGPAERRERLRNILSVVGTDALKKTKKDDEKSKKSKEEYQQTWYHE
B3 was tested, and the Kd [2] was 1 µM.

B4: pre-mRNA processing factor 4 (PRPF4), residues 1-169 (domain or fragment, human, UniProt O43172 1-169, looked up)
chain: MASSRASSTQATKTKAPDDLVAPVVKKPHIYYGSLEEKERERLAKGESGILGKDGLKAGIEAGNINITSGEVFEIEEHISERQAEVLAEFERRKRARQINVSTDDSEVKACLRALGEPITLFGEGPAERRERLRNILSVVGTDALKKTKKDDEKSKKSKEEYQQTWYHE
B4 was tested, and the Kd [1] was 0.39 ± 0.04 µM and the binding result [2] was “binds”.

B5: PRPF4 residues 1-169 with F122A (domain or fragment, human, UniProt O43172 1-169, looked up)
chain: MASSRASSTQATKTKAPDDLVAPVVKKPHIYYGSLEEKERERLAKGESGILGKDGLKAGIEAGNINITSGEVFEIEEHISERQAEVLAEFERRKRARQINVSTDDSEVKACLRALGEPITLAGEGPAERRERLRNILSVVGTDALKKTKKDDEKSKKSKEEYQQTWYHE
B5 was tested, and the Kd [1] was 15.6 µM.

— article PMC5682932 (The Biochemical journal, 2017)
